By stoichiometry N is commonly meant a count of units in the complex or per binding partner. The Kd is the concentration at which binding is half-saturated. Low values mean a tighter complex, high ones a looser complex.

The source of these data is paper PMC9239997, “Structural basis for mitoguardin-2 mediated lipid transport at ER-mitochondrial membrane contact sites” (Nature Communications, 2022).

Numbering of substitutions follows the chain as printed. Names and notes keep the numbering of the source. [ ]: non-standard residue; d: D form. pS = N[C@@H](COP(=O)(O)O)C(=O)O

B1: MSP domain of mouse VAPB (residues 1-125) (domain or fragment, UniProt Q9QY76 1-125, looked up)
chain: MAKVEQVLSLEPQHELKFRGPFTDVVTTNLKLGNPTDRNVCFKVKTTVPRRYCVRPNSGVIDAGASLNVSVMLQPFDYDPNEKSKHKFMVQSMFAPPDTSDMEAVWKEAKPEDLMDSKLRCVFEL
notes: vesicle-associated membrane protein-associated protein B/C (VAPB), Mus musculus, MSP domain, residues 1-125; Cloned into pGEX-6P-1; the pull-down used a GST-fused form, which is not this molecule; also called mVAPB; mVAPB WT
B2: MSP domain of mouse VAPB (residues 1-125) K87L/K118L (domain or fragment, UniProt Q9QY76 1-125, looked up)
chain: B1 chain with K87L, K118L
notes: VAPB, Mus musculus, MSP domain, residues 1-125, with K87L and K118L; also called mVAPB K87L/K118L
B3: mouse MIGA2 residues 275-570, S292E/S295D (domain or fragment, mouse (Mus musculus), UniProt Q8BK03 275-570, looked up)
chain: GSLRLRADDEDSLTSEDEFFDATEIFESLQIGEYPLPLSRPAAAYEEALQLVKEGRVPCRTLRTELLGCYSDQDFLAKLHCVRQAFEGLLEERSNQIFFGEVGRQMVTGLMTKAEKSPKGFLESYEEMLSYALRPETWATTRLELEGRGVACMSFFDIVLDFILMDAFEDLENPPSSVLAVLRNRWLSDSFKETALATACWSVLKAKRRLLMVPDGFISHFYSVSEHVSPVLAFGFLGPKPQLSEVCAFFKHQIVQYLRDMFDLDNVRYTSVPALAEDILQLSRRRSEILLGYLGA
B4: MSP domain of mouse VAPB (residues 1-125) (domain or fragment, mouse (Mus musculus), UniProt Q9QY76 1-125, looked up)
chain: B1 chain
notes: vesicle-associated membrane protein-associated protein B/C (VAPB), mouse, MSP domain, residues 1-125; In the liposome clustering (DLS) and tethered lipid transfer assays a His-tagged form (His-mVAPB) was used; also called mVAPB; wild-type mVAPB
B5: phosphorylated FFAT motif peptide of mouse MIGA2 (residues 289-298) (peptide)
peptide: Ac-SED[pS]FF[pS]ATE-NH2
SMILES: CC(=O)N[C@@H](CO)C(=O)N[C@@H](CCC(=O)O)C(=O)N[C@@H](CC(=O)O)C(=O)N[C@@H](COP(=O)(O)O)C(=O)N[C@@H](Cc1ccccc1)C(=O)N[C@@H](Cc1ccccc1)C(=O)N[C@@H](COP(=O)(O)O)C(=O)N[C@@H](C)C(=O)N[C@H](C(=O)N[C@@H](CCC(=O)O)C(N)=O)[C@@H](C)O
notes: also called mMIGA2^pFFAT; source: synthetic peptide, purified by HPLC
B6: MSP domain of mouse VAPB (residues 1-125) K43L/K45L (domain or fragment, UniProt Q9QY76 1-125, looked up)
chain: B1 chain with K43L, K45L
notes: VAPB, Mus musculus, MSP domain, residues 1-125, with K43L and K45L; also called mVAPB K43L/K45L
B7: mouse MIGA2 residues 161-570 (domain or fragment, UniProt Q8BK03 161-570, looked up)
chain: GMEESVPTTDGSAESLYVQGMELFEEALQKWEQALSVGQRGDGGSTPTPGDSLQNPDTASEALSEPESQRREFAEKLESLLHRAYHLQEEFGSTFPSDSMLLDLERTLMLPLTEGSLRLRADDEDSLTSEDSFFSATEIFESLQIGEYPLPLSRPAAAYEEALQLVKEGRVPCRTLRTELLGCYSDQDFLAKLHCVRQAFEGLLEERSNQIFFGEVGRQMVTGLMTKAEKSPKGFLESYEEMLSYALRPETWATTRLELEGRGVACMSFFDIVLDFILMDAFEDLENPPSSVLAVLRNRWLSDSFKETALATACWSVLKAKRRLLMVPDGFISHFYSVSEHVSPVLAFGFLGPKPQLSEVCAFFKHQIVQYLRDMFDLDNVRYTSVPALAEDILQLSRRRSEILLGYLGA
notes: Oligomer of unstated size by SEC; source: E. coli BL21 (DE3), purified (Ni2+-chelated HiTrap, tag cleaved by TEV, size exclusion chromatography)
B8: mouse MIGA2 middle domain, residues 161-300 (domain or fragment, UniProt Q8BK03 161-300, looked up)
chain: GMEESVPTTDGSAESLYVQGMELFEEALQKWEQALSVGQRGDGGSTPTPGDSLQNPDTASEALSEPESQRREFAEKLESLLHRAYHLQEEFGSTFPSDSMLLDLERTLMLPLTEGSLRLRADDEDSLTSEDSFFSATEIF
notes: Oligomer of unstated size by SEC; also called central MIGA2 domain; source: E. coli BL21 (DE3), purified (Ni2+-chelated HiTrap, tag cleaved by TEV, size exclusion chromatography)

One series concerns the target T1, zMiga2 (Danio rerio, UniProt Q5BLE2).
T1 construct: gene miga2; LD targeting domain, residues 310-568; E. coli BL21(DE3); His6 tag cleaved by TEV
T1 sequence (Q5BLE2 310-568): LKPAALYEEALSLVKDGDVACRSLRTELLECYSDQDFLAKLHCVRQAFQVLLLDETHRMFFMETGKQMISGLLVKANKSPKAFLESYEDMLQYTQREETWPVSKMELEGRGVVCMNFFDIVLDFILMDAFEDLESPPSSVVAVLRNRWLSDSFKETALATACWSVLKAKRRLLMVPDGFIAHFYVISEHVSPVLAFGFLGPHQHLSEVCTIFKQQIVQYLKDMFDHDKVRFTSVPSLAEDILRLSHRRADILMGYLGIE
Briefly: FRET lipid transfer between liposomes. It is filed as biochemical. To be noted: labelled compound; 100 nM protein, pH 7.0, room temperature; transport, not chemical turnover.

Series [1] concerns the target T2, mouse MIGA2 residues 275-570 S292E (mouse, UniProt Q8BK03 275-570, S292E).
T2 construct: source: E. coli BL21 (DE3), purified as the wild type (Ni2+-chelated HiTrap, tag cleaved by TEV, size exclusion chromatography)
T2 sequence (looked up): B3 chain with D21S
As to the kind of experiment: ITC; mVAPB (wild type or mutant) in the syringe, mMIGA2^275-570 or mMIGA2^pFFAT in the cell; Microcal ITC200, 25 °C, 25 mM Tris-HCl pH 7.5, 150 mM NaCl, 4 mM β-mercaptoethanol; 20 injections of 2 μl; 1:1 binding model. To be noted: both partners purified. A general note: Isothermal titration calorimetry measures the heat released or taken up as one component is titrated into another.

The target in series [2] is T3, mouse MIGA2 residues 275-570 S295D (mouse, UniProt Q8BK03 275-570, S295D).
T3 construct: source: E. coli BL21 (DE3), purified as the wild type (Ni2+-chelated HiTrap, tag cleaved by TEV, size exclusion chromatography)
T3 sequence (looked up): B3 chain with E18S
The series is described as above. To be noted: both partners purified.

For series [3], the target named is T4, mouse MIGA2 residues 275-570 S292E/S295D (mouse, UniProt Q8BK03 275-570, S292E | S295D).
T4 construct: source: E. coli BL21 (DE3), purified as the wild type (Ni2+-chelated HiTrap, tag cleaved by TEV, size exclusion chromatography)
T4 sequence (looked up): B3 chain
The description is as above. To be noted: both partners purified.

Series [4] concerns the target B5. The description is as above. To be noted: both partners purified.
In series [5] the target is B4. Briefly: cell-based or functional assay.
In series [6] the target is T5, mouse MIGA2 residues 275-570, S292E (mouse (Mus musculus), UniProt Q8BK03 275-570, S292E).
T5 construct: also called S292E phosphorylation mimic mutant; source: E. coli BL21 (DE3), purified (Ni2+-chelated HiTrap, TEV cleavage, SEC)
T5 sequence (looked up): B3 chain with D21S
As to the kind of experiment: ITC; Microcal ITC200, 25 °C, buffer C (25 mM Tris-HCl pH 7.5, 150 mM NaCl, 4 mM β-mercaptoethanol); 20 injections of 2 μl; 1:1 binding model. To be noted: both partners purified.

Series [7] addresses T6, mouse MIGA2 residues 275-570, S295D (mouse (Mus musculus), UniProt Q8BK03 275-570, S295D).
T6 construct: also called S295D phosphorylation mimic mutant; source: E. coli BL21 (DE3), purified (Ni2+-chelated HiTrap, TEV cleavage, SEC)
T6 sequence (looked up): B3 chain with E18S
The series is described as above. To be noted: both partners purified.

Series [8] has as its target B3. Described as above. To be noted: both partners purified.
Series [9] has as its target B6. As to the kind of experiment: ITC; mVAPB (wild type or mutant) in the syringe, mMIGA2^275-570 or mMIGA2^pFFAT in the cell; Microcal ITC200, 25 °C, 25 mM Tris-HCl pH 7.5, 150 mM NaCl, 4 mM β-mercaptoethanol; 20 injections of 2 μl; 1:1 binding model. To be noted: both partners purified.
For series [10], the target named is B2. The series is described as above. To be noted: both partners purified.
Series [11] deals with the molecule itself. As to the kind of experiment: SEC; Superdex 200 increase 10/300 GL, 25 mM Tris-HCl pH 7.5, 150 mM NaCl, 5 mM DTT; proteins injected at 2–4 mg/ml; elution compared with molecular mass standards. For orientation: Size exclusion chromatography separates by hydrodynamic size, large species first.

Turning to `CCCCCCCCCCCCCCCC(=O)OC[C@H](COP(=O)(O)O)OC(=O)CCCCCCCCCCCNc1ccc([N+](=O)[O-])c2nonc12` [NBD-PA, 1-palmitoyl-2-{12-[(7-nitro-2-1,3-benzoxadiazol-4-yl)amino]dodecanoyl}-sn-glycero-3-phosphate], the “FRET lipid transfer between liposomes” value at zMiga2 is “zMiga2 transfers not only PS, but also PE, PC, and PA”.

As to `CCCCCCCCCCCCCCCC(=O)OC[C@H](COP(=O)(O)OC[C@H](N)C(=O)O)OC(=O)CCCCCCCCCCCNc1ccc([N+](=O)[O-])c2nonc12` [NBD-PS, 1-palmitoyl-2-{12-[(7-nitro-2-1,3-benzoxadiazol-4-yl)amino]dodecanoyl}-sn-glycero-3-phosphoserine], at zMiga2, the “FRET lipid transfer between liposomes” value is given as “zMiga2 transferred PS more rapidly than other phospholipids”.

B1: the “stoichiometry N” value came to 0.633 ± 0.071 in series [1], 0.501 ± 0.013 in series [2], 0.658 ± 0.009 in series [3] and 0.755 ± 0.07 in [4].

In the case of B2, the “stoichiometry N” value in series [4] amounted to 0.698 ± 0.071.

For B3, the “liposome particle size by DLS: donor liposomes pre-anchored with His-mVAPB mixed with acceptor liposomes pre-anchored with His-mMIGA2^275-570 (S292E/S295D), compared with wild-type His-mMIGA2^275-570” value in [5] is around 5 fold.

On to B4, for which the Kd in [6] came out at 26.4 ± 6.8 µM; in series [7], 8.1 ± 1.5 µM; in [8] it was 2.5 ± 0.3 µM.

On to B5, for which the values for the Kd in series [9] and in [10] were 8.6 ± 1.4 µM and 5 ± 0.4 µM, respectively.

Consider B6, for which the “stoichiometry N” value in series [4] turned out to be 1.04 ± 0.027.

Take B7: the binding result in [11] is listed as “binds”.

As for B8, in series [11], the binding result is given as “binds”.
